Test results reported in the DeepSol protein solubility set.

Assay: soluble on expression in E. coli; label from the status in PepcDB or PDB records

Sequence | soluble on expression in E. coli
MLPSWKAFKAHNILRILTRFQSTKIPDAVIGIDLGTTNSAVAIMEGKVPRIIENAEGSRTTPSVVAFTKDGERLVGEPAKRQSVINSENTLFATKRLIGRRFEDAEVQRDINQVPFKIVKHSNGDAWVEARNRTYSPAQIGGFILNKMKETAEAYLAKSVKNAVVTVPAYFNDAQRQATKDAGQIIGLNVLRVVNEPTAAALAYGLDKSEPKVIAVFDLGGGTFDISILDIDNGIFEVKSTNGDTHLGGEDFDIYLLQEIISHFKKETGIDLSNDRMAVQRIREAAEKAKIELSSTLSTEINLPFITADAAGPKHIRMPFSRVQLENITAPLIDRTVDPVKKALKDARITASDISDVLLVGGMSRMPKVADTVKKLFGKDASKAVNPDEAVALGAAIQAAVLSGEVTDVLLLDVTPLSLGIETLGGVFTKLIPRNSTIPNKKSQIFSTAASGQTSVEVKVFQGERELVKDNKLIGNFTLAGIPPAPKGTPQIEVTFDIDANGIINVSAKDLASHKDSSITVAGASGLSDTEIDRMVNEAERYKNQDRARRNAIETANKADQLANDTENSIKEFEGKLDKTDSQRLKDQISSLRELVSRSQAGDEVNDDDVGTKIDNLRTSSMKLFEQLYKNSDNPETKNGRENK | not soluble
MLQDADRTRILAISPHLDDAVLSVGASLAQAEQDGGKVTVFTVFAGSAAPPYSPAAERFHARWGLSPTEDAPLRRRNEDIAALDQLGAGHRHGRFLDAIYRRSPDGQWLLHHNEGSMVRQQSPANNHDLVAAIREDIESMIAECDPTLVLTCVAIGKHPDHKATRDATLLAARERGIPLRLWQDLPYAAYSQDLAELPDGLRLGSPELSFVDEEARTRKFQAMKHYATQLSVLDGPNKNLFAKLDEHARNAAPDGGYNETTWPVIRYAAE | soluble
MLRYLLLSMYLFYIKKRRCHHFFIIVNIILSVSMQNDNLPFKITACVYKIV | not soluble
MLSGTLFHKDVSIYSLFEELADKLNQKIEKRERLVKASRDVTYQSKKAIYLLHRAADEDLFSICSSAKEQLENIRQLICKLLLPELSAEEYFRFHSVFTIALQEYTEARLFLSYLSEGRALTLDEINAEISQQWQSLLENSEEARIY | soluble
MLSSLRRVVPSLPRGSRSLTSQQIFDREKKFGCHNYKPLPVALSKGEGCFVWDVEGKKYFDFLAAYSAVNQGHCHPKLLKVVQEQASTLTLTSRAFYNNVLGEYEEYVTKLFKYDKVLPMNTGVEACESAVKLARRWAYDVKGVKDNEAVVVFAENNFWGRSIAAISASTDPDSFARFGPFVPGFKTVPYNNLKAVEDAIKDKNVAAFMVEPIQGEAGVVLPDPGYLKGVSDLCKKYNVLFITDEVQSGLGRSGKLLAHYHDNVRPDIVVLGKALSGGFYPVSAVLCDDNVMMNIKPGEHGSTYGGNPLACKVAIAALEILQEEKLVENSAVMGDLLMSKLKTLPKDIVSTVRGKGLFCAIVINKKYDAWKVCLKLKENGLLAKNTHGDIIRFAPPLCINKEQVEQAADIIIKTVTDFAKQN | not soluble
MLSSSEKVAGQGVSGAYRELVRLLHRAAKDQLIVTENLPIEADVTHFHTIDFPYYLSTFQKKRSGRKIGYVHFLPATLEGSLKIPFFLKGIVKRYVFSFYNRMEHLVVVNPMFIEDLVAAGIPREKVTYIPNFVNKEKWHPLPQEEVVRLRTDLGLSDNQFIVVGAGQVQKRKGIDDFIRLAEELPQITFIWAGGFSFGGMTDGYEHYKKIMENPPKNLIFPGIVSPERMRELYALADLFLLPSYNELFPMTILEAASCEAPIMLRDLDLYKVILEGNYRATAGREEMKEAILEYQANPAVLKDLKEKAKNISREYSEEHLLQIWLDFYEKQAALGRK | not soluble
MLSTSASLYLNELINEMRQLSETPIDCKNARMLLSKEISKVFDELYRHGQGFIDNGYGSDYNKNDFYSPHSANSGYSASPFPSRPSLPNHALSTSFYHNSFMTPIRNGRMRSPDQDLGDWSREKINDTQHVLQTKVYIPEPPVSIDGKKVKCNYIGRILGPSGMSARMIENQYDVTLLIRGAGSVRNKAMDERVRKRNEHLEEPLHVLLIARHNDKTKCEEILNKAAEKIESLLTPIHDEYKMDQLVSYAKMNGTYQERPKRKSQLDEQSHSNYWAPH | not soluble
MLSVAGHRFASLATTPVLRMGLARCFSSVTGPFQCPPLPYVKNALEPHMSAETLTYHHDKHHQTYVDTLNSIAAENSTIASKTLEQIIKTETGKPFNQAAQVYNHTFFFNNLAPNGGGEPTGKIAELITRDFGSFEKFKEDFSAAAVGHFGSGWVWLIADDGKLKIVQGHDAGNPIRESKTPLMNIDVWEHAYYIDYRNARAQYVKNYWNLVNWDFVNDNVAKAGI | soluble
MLSYRHAFHAGNHADMLKHFTLFLVLQYFNRKDKPYWYIDTHGGAGVYNLEGSEAQKVGEYRQGIALLRQAQNLPAELSDFAAHIQKILPSPKLYCGSPWLAQSLTRVGDKLRLFELHPTDFVHLQNNMGEAGLGKRGQVLREDGYKGLISLLPPPPRRATVLIDPPYEEKQDYRRVTETLKAALKRFESGCYLIWYPCLSREESRKLPEELKKLLPDNYLHAELHVHAPKADGFGMHGSGMFVINPPYLLAEQLAANLPALTRLLAQDEGSRYLLDSKIR | not soluble
MLTEERHQKILQLLDQKSVVKSQELASLFNASESTIRRDLQELEDANLLERIHGGAKRILNLGFEQNMTEKSIKNTHEKQKIASLAVSCVQDGDMIYLDAGSTTLEMIPFLVGKQIHVVTNSVHHAAKLSDMEIPTIMLGGTLKLSTKAIIGATSMEQLQHFRFNKAFLGTNGAHLEFGLTTPDPEEAALKALAIHQAETAYVLLDHTKFNEVTFTKVEELESVTLLTDYCPAESLQGFQQKTILMEANKLEHHHHHH | soluble
MLTEQQRRELDWEKTDGLMPVIVQHAVSGEVLMLGYMNPEALDKTIESGKVTFFSRTKQRLWTKGETSGNFLNVVNIAPDCDNDTLLVLANPIGPTCHKGTSSCFGDTAHQWLFLYQLEQLLAERKSADPETSYTAKLYASGTKRIAQKVGEEGVETALAATVHDRFELTNEASDLMYHLLVLLQDQDLDLTTVIENLRKRHQ | not soluble
MLTFLFELDKNLPQKDEPRYDAYSKGFIEGDVTICASDSVFFQKSCMKVAELGIYLGQWMEQVQHGQNVPMKYETADREEVILGFFYEEDHNQWIVFSSWQEFELQERIATATLIESVQRYLYELNKELRMIEYPVTFDQYLRGERMMQLSYKRPCDSKADTTPIEVYNGSEQVGVVRGYYKNTLMRALDFIPKIGSNIIYEIKDSKDNIRVIAKDVSRQRQRRILVMYKDNHDAEHEILVCDGKLLDANFLFTFTYKAEEYVVHKTLFGMGKLLRKGYVIADWNIRLEEDMYYIEMNVYDEDYMQDQYLLLGVFHAVLYG | not soluble
MLTIARRFSGSSICRKQITVGSNNIQVIKNIQDREYEAIWKTIGSTRSDLKKDDIKKFKEAWGNDYHQTLTFLKDSDRLIASNSHVVFRPLKDSKGLENLVFRGNLWISPDVRGSEIMDITDKQSYDVGFSVGNNSMAYATKKTMDQYKNLTGSMDHLHKYYVSNYDFGDLCIPKDLDTSGIVVKNARDVPDTDILKYDAKVFKYERSKYVLGQIREDFGRVAYNEKGDVIGIGAISVYPSGECAITPMYADDIRIARTILKNILEEMTLDAEKYWRLQIRSHDQHTGSYGWIRPFLSTMTHRSEVCTLMCDHKEKGMDFSKVYSTFHADNCPI | not soluble
MLTLSFATGTEPNKWFTRFEERTDHGGLRTLSDDDPLSLLVDATADLALVRLPDPRMDNDDTVHVVELYQESMGVALPKEHTLTLLDVVEPSDLDGEIINYITPPSLEVDVAAVRAQLQMVAANVGVVIAPRPLLKVLSGKLVEHREFSDPQRYGQARTRIALVWKKERDGEDIQDFVGIAKGRTVQSSRQSNAKKVSAREKTLAKQKRRKEAGKKPVRKGGRRKR | not soluble
MLTQEQIDIIREGPDYFLESIWFRIGQLYGLSPGQIDHDSFEERKNDLFFLLGKLLDEGQIKIGNHKGNFISGPTPALVEMFRSSFPDSDEKAQAIWFITECPGGIVWVLKGQGEKGQDVYKWWLFKDEK | not soluble
MLTTLSCCCNMPVVKVNCWNNMKVQIKSITQWGGVLLLSFSSCYVNANKLIKPNILFIAVDDLKPLIRDYGTAKVQTPNIDKLASQSTVFTRAYSQYPVCGPSRMSILTGLRPESNGIMNLKDKIRDVNPSVITLPQFFKNNGYETAATGKIFDPRNTTSRSEEEVLSWSIPYQRPKHGLKGKTRLAVESIDEPDEKFVDGGILKRGKKLLKQMANKNKPFFLAVGFKKPHLPFVAPKKYYDLYSRESFDLASYQSAPEDADTTYLFHKNQELRGYKPTPIKGGEIKPYPKGKLSSAHQKELLHGYFASVSFIDSLVGELLEELEKTGQAENTVIVFWGDHGFHLGDHGLWGKHTTMEQANHVPLIIKIPGSKANRYAKPVELLDVFPSLTEAAGLSIPNNLQGTSLVSLVTGKLKSIDKVAISQYKRKGAYGYSMRTEQYRYTQWVTPSGKVVYRDLYDLINDPLETKNIINTPEGKLLEVELNKQLHTNSAGLKRLKLEHHHHHH | not soluble
MLVLPKGVRHMPAYLSRAIQDALVEDVRSIVQQAPLFVPAMPRTGKEMSVRMTNCGPLGWVTDKERGYRYQPTHPLTGEPWPPIPESLLDLWRQVSGYPNPPEACLINFYTADAKMGLHQDRDEADFSAPVVSVSLGDDCLFRVGQTTRDGATKSFRLKSGDVVVLGGEGRLAFHGVDRIYPSTSALLKNGGRINLTLRRVTKPHEECLTSRSLEHHHHHH | soluble
MLVPGRVYLFRIPEGKEIIEFLREFAEKENIKVGIISAIGTLRNPVIGYFMEEEKKYKEISLTGTYELLSLSGNISLKDGKPFVHAHVVLGDSEGRAFGGHLVRGEVFVAEVFVQELEGETLERKPTEHGLALWLEHHHHHH | not soluble
MLYDKWDVIMKKVQDIVEAIPKNGTLSIVQRDLESNGDKFALKNPPQSFNLEHHHHHH | not soluble
MLYNKSSFCLWKETIVPIILDSDVLEVAEYVYKTRLSQPYTEVGSEWEYNYKNPTATFAKGDGHNLQRYITIDGKQLHRPIHGLAHTMRTLMYSQLMYCSSKKQPSPHVCQDGRTIADLSELDLKKINIAQLFFVAGRESEASYGDAYHRYHLYGAKQFEEYARKHLTHLFSEEEIRLYSRCIEDRVGDSFDGTPEGYIIHLSHMIDLMRCKSPVEVFLGHSKGVSGIVPTLIHLFGKQDGLDIMHYARGLFAATGEAVPYIDSSEWPHLGVDLSRVQRALSIVGDINVPGQEADSKKTAQAGFSVDGCYSALTSVPTPSWYEKELKEIDDEKIDVKEVDDREIEKEHEIVVPSQATTPLSTVKTDSFVEKLLKPFMIWKKPEVQTTQPTTEKTNKP | not soluble
MMAYKSLLTVLTDPKIAPATLAQLVALAEAQDAHAEALCLGVDRSQTGYYYAGANALILQETLNRANAEAEEVLTLAQDTLGKSGVRWSAESGVAQIADLGRHVAHRARFSDLVVLSRPYGEDRGSEAEPIVEAAMFEGHAPVLVVPDNAPPLKQPRTVLLGWNESVEAMRAIRLAMPFLRAADLVRIVVIDPPRHGPDRSDPGGLLSQMLARHGVKVEIDVLSKTMTRVSDILNRHATDTSADMLVMGAYGHSRFREAILGGATRNMLEQATVPVFMAH | not soluble
MMFDRETQVVDCRCGGGLGKGGGLAQRGTLSEAGRADVVAVAMSPGQRHITKPVCEITYGMRKENIQVSVLVLYSGSGIPESGMRTGSFVLSPVEVAQIEMHKLAVIHLGNIKDHVIRKTREILSQVDIPAIIVSQIPVDFEDFAEAGIKTRLVMPRDENIRTKGIVMDMVSGVTRGDSCPRDKLNLIVKYVKTTLDQLKDHKGVALEHHHHHH | soluble
